# Measured values taken from patent US20250222069A1 (ACCELERON PHARMA, published 2025).
# Numbering of substitutions follows the chain as printed.
# T1: GDF11 (UniProt O95390 299-407)
# T1 construct: also called BMP11
# T1 sequence (looked up): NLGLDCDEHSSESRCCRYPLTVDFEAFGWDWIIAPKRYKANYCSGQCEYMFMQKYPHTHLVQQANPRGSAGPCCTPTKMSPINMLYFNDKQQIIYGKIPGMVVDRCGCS
# B1: Soluble ActRIIB-Fc D80I (Fc fusion, not shown: a dimerising Fc or GST)
# chain: SGRGEAETRECIYYNANWELERTNQSGLERCEGEQDKRLHCYASWANSSGTIELVKKGCWLIDFNCYDRQECVATEENPQVYFCCCEGNFCNERFTHLPEA
# notes: From WO2006/012627; background 64A inferred
# B2: Soluble ActRIIB-Fc K74F (Fc fusion, not shown: a dimerising Fc or GST)
# chain: B1 chain with K56F, I62D
# notes: as for B1
# B3: Soluble ActRIIB-Fc K74I (Fc fusion, not shown: a dimerising Fc or GST)
# chain: B1 chain with K56I, I62D
# notes: as for B1
# B4: Soluble ActRIIB-Fc K74Y (Fc fusion, not shown: a dimerising Fc or GST)
# chain: B1 chain with K56Y, I62D
# notes: as for B1
# Biological target: T1, GDF11
# Assay: Biacore; ligand coupled to chip, receptor flowed over (table reproduced from WO2006/012627)
row,Binder,binding as fraction of WT binding
1,B1,< 0.2 fold
2,B2,< 0.2 fold
3,B3,< 0.2 fold
4,B4,< 0.2 fold
